Measured values from a protein production outcome set (Wang et al. 2014).

Test: label from the status in PepcDB records
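Note: failed if final PepcDB status was selected cloned or expressed and not failed if soluble or beyond.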

Sequence | protein production
MPANPRQDLDRYRAKRDFARTPEPQGRSEAPRPEAESLSFVVQKHAASRLHWDFRLEWNGVLLSWAVTRGPSPDPSARRLAVRTEDHPLDYAEFEGTIPKGEYGGGTVMLWDRGTWEPQGDFAEGLRTGQLKIRLAGERMRGRWTLVRMKPRPREKAENWLLIKEHDTHESEQTEELVERHMTSVATGRTMEQIAAGKAPPRRTRQAALPAFRPLQLARLVSAAPEGEDWIHETKFDGYRCLAALAGGRARLYTRSGLDWTAKFGALVEDVEALEAQEALIDGEVIAPGREGGSFSELQARLKSGGQLLFMTFDLLLLDGEDLTGQPLLARKERLKTLIGKGRGAVRFSGHIRGHGPEVHERICAAGLEGIVSKRASAPYAGSRNGDWLKVKCAHRQEFVICGWNASDKPGRPFASLVMGSYEKSRLVYRGSVGSGFGAPLFRELKPLLAERAQSACPFDRTPAEAKGAHWLKPELVAEVSFTELTAEGHIRHGVFAGLRSDKDAREVRLEEPAPETPAPRKSGVRKKGTKTARPDAPSPDEPAPEPARKPRTARGEKKETTMARPDDLRVAGIRISHPDRRIYDRPAVTKREVAEHAEALAPRMLRFLKDRPVSLLRCPEGAAAECFFQKHRTRGMPVAMKTVPVETKSGPEDFITLPDVAALVGATQMGTLEFHIWGSRNRSLQRPDRLVFDLDPDEGLDFAHVRTAAAELRGLLTDLGLPSVPMLSGGKGVHVIVPLKPKAEWESVKLFSRALATHLAQEAPDRYTATMAKAGRKGRIFIDWLRNDRGSTAIAPYSLRARPGAPVATPVDWDELASARSGGDWTIRSIRDRLDRPCPLAEASARPATLGRTVIGRLERLVAGGKP | failed
MPAPLRFSSDKPLLLLIDMQQAVDDPSWGPRNHPQAEQACAGLLQAWRARGLPLIHIRHDSVEPNSTYRPGQPGHAFKPEVEPRPGETVIAKQTNSAFIGTGLEALLRANGWLELVVAGVSTSNSVEATVRMAGNLGFAVCLAEDGCFTFDKTDWHGRRRSADEVHAMSLANLDGEYCRVCGSADILAALGNIAGAA | not failed
MPAPRFAQASEVPGLAARRIAADILDGVLQKRRMLDDQLEGPAAHPGLKTLSDRDRALMRRLVATILRRLGTLEGLLAKLLDRGVPTDAPRAKSALLIGAAQILWMDVPDHAAVDLSVRLVQSDRRAAKYAGLVNAVLRRCAREGQPLVEELAAGTPDVPQWLLARWSEHYGAETTRAIAHAISHEPSLDLTVKSDPAHWAARLHGEVLPTGTVRTLLQGSVRMLPGFDEGQWWVQDAAAALPARLFGDIAGKSVADLCAAPGGKTAQLAAAGARVTAIDRSPARVARLRENLARLSLKVETGVADAAEWRGDATAEFDAVLIDAPCASTGTIRRHPDVAWLKQESDIGALAAVQNRLLKKAASLLRPGGTLVYCTCSLEPEEGEQAIAALLDAESSMRRQPIDPAEVAGLAEIVTTDGALRTLPCHLPHSDPRLAGLDGFYAARLVKSL | failed
MPAPTHGCPLPRFSVIVPAYKVQAYLHECLESVLEQSFPDLELIAVDDCSPDACGAIIDEFAARDTRVRPVHLPQNTGLGRARNAALAEATGDYLIFLDADDSLTPGALQAVADRIKETSEPDVLVYDYARTFWSGETVRNREAGQLTEQGPAPFRLDDRPGLLNVLMVVWNKAYRREFVEREGFTFPPGLYEDTPWTYPALMAAETVATLDRVCVHYRQRRRGNILGTTGRGHFDIFGQYDRVFAYLDGHPELAHWRPVLFRRMVDHVATVFTRRGRLPRGSHAEFLRRARAHYRRHRTPGPPARPRFRLRHVLVRLGSHRTYRLLSLASRTRVRTARSATAVLGRLAGVALQAHYRLQRRLPVRADRAVFASHQGQGHGCNPGALEAAFRTLAPHIRTAWIARPEHHHTVPAATRRVRPGSAAYWTALARSKYLVSNADFDRRLRKRPGQIVIQTHAGTPLKRMGLDLQDRPAAARDTDFAQVLRGADQWDYCLSANRHSTLVWERVFPSGFTTLEYGQPRNDRFQQATSADVTRLRESLGIPHGSVAILYAPTYRDYRRSQRHLLDLERVLRQLGPRYVVLTRAHPSYGAPLTRSDGARLIDVSGHPSVESLCLASDALVTDYSSLMFDYANLDRPIVVYADDWEAYEAARGTYFDLRAFPPGAVARTEEELIDIFATGHWRGSRAAQLRAAFRARFCPYDDGRAAERVVRRIVLGEGAREGERNSEGDGGATGLPPVVPLAGRHPVPSAAAALARPPLATVPHPAGPVPVVDSP | failed
MPAYVFSKESFLKFLEGHLEDDVVVVVSSDVTDFCKKLSESMVGEKEYCFAEFAFPADIFDADEDEIDEMMKYAIVFVEKEKLSEAGRNAIR | not failed
MPCCSHRRCREDPGTSESQEMEEWALLDISQRKLYKEVMLETFRNLTSVGKSWKDQNIEYEYQNPRRNFRSLIEKKVNEIKDDSHCGETFTQVPDDRLNFQEKKASPEIKSCDSFVCGEVGLGNSSFNMNIRGDIGHKAYEYQEYGPKP | failed
MPDGPDPSSYGPDESPGPDPEEPSSSETAPARHARTTTASRRGHARERMPVSPDESASTFTFDRVVRFLLGAAAVGSVGWMVWYFAGIVLYLIVGGLLAYLLRPPVDYIQGLGVGRVPAILVAFAVFLGVIVVIVTSVVPFITRQVQDLSQLITIDTAAYVANLIEAQVQGVVPLEQGVLEENVRQAAESLMRGDLVEGQQVAETVSSVVSVFTNIVYAVVIVPFVTFFLLKDELRIRRSLLHLVPNRYFEVTLSILAKVELNIGRYFRALLVQGTAIAVIASTLLWIVGLRGAIAIGIFTGLANTIPYFGPFLGFLAGTLVGIAQTGDVSLVPGVALAMALTQLADNVLLQPLIFSRAAQTHPLVILFVVLAGAQLGGILGMLMAIPLTTTLRVIVEQLLWSLRNYRILRAG | failed
MPDKFNMQSPPFNRLTAEQQHQLRSALDVAYFRQRDVLIDAQHPVTHLHILIKGTVEERSPDGKEVFAHYANDDLFDVRAMFEELSKHQYMALEDTLSYLLPKSIFLQLYEQNGEFAAYFDNNLAKRQELIEAAAQQKNIAEFILTKVDRSIYHPPFILSPEQPIHSVTQQLKERGIDAALVELHPSDPRLAHNHAHPYAIVTRTNMLHAVMLEGRPLDTPVGEIATFPVLHVDEGDFLFNAMVMMTRQRIKRVMVCLGNQAVGLLSLIQILSAFSTHSHVLTLAIARAASIDELALAANKQRELVESLMSRGVRTRFVMELIAAVNEQIIEKAFELVVPPALHDQCCLVVLGSEGRGEQILKTDQDNALIIQDGLEWHQCQPIMETLTHTLLQLGYPLCPGKVMVNNPKWVRSQSDWKRTLTDWVKAARPEQVMDIAIFADAHAVAGNRALLAPVKAHLQHLMAGQELILAEFTRPALNFSVPLTLFGNVKSSKQGIDIKQGGIFPIVHGVRALSLEHAIDANNTFDRIEALVKKRVLEQETGDNLSEAFKLFLKLRLAQQLGNQHSTNQLDFKQLDRTERDLLRHSLHVVKKFKQWLGYHYQIRD | failed
MPDKPMQYVISRLIDNRTRTRILAPVSALTVKAAREKATGQLQAWREEHTQPSMSASPRFDVFVEQTWKPMIFEHWKPSTKRSVLPALNRRLLAHFGRYPLHMINHKMVQAWFDEISKTRKGAANRNLDTLQSVFKLALRQGHCLTNPCIGIRQNKRRVLNRFLSVAEMQRLSVALDECEAVGGSIAQCADVLRLLLLTGCRLSEITFLKGEYVRGNELHLPDSKTGAKVLYIGQAAVDILSRYHCKANTELFPMKQGASTSLVQSLWLRLRKQIGVEDVRLHDLRHTFASYAVMDGCSIPMVASLLGHKKVTMTLRYTHVGDDSVEQASEVIGAVFKGIFTQPEPPKPLIPRTNETPMPAVKVKQKRLPERKPTAKPKPKAVKKVKQVKPLQKLPTLTKEELRAIQRFRDSELFDRVKIG | failed
MPDLPLAPEALDLSPAFLEVAACPACHSRFALDFDSGELVCSSPSCGLAFLVRDGVPDLRLDAARKRETGQGVTAEDTEAFEPTHRHEMRPQ | failed
MPDNEVDLLFAQLSPEDLIEWSDYLPESFTDRALAQMGERQRQRFELYDQYSENEIGRYTDHQMLVLSDKATVAQAQRFFRRIELDCNDNLFIVDEADKYLGTVRRYDIFKHEPHEPLISLLSEDSRALTANTTLLDAAEAIEHSREIELPVIDDAGELIGRVTLRAATALVREHYEAQLMATAGMDESDDLFAPILKGAQRRAV | not failed
MPDSPFVSVVVPVYNDPEGVKDTLHALVDQRDAPAFEVRVVDNDSTDETMQVIEAFAADHPEIYCHTETEIQSSYAARNTGIEHAGGDVIVFLDADVVVERTCLRDISRTFEGSDVDYVGCNVQMYNPGETDTFWTKYDLAMGLPVEHYLRRKRFAPTCALAVRREVIEAVGTFDDELVSGGDKEFGNRVSEAGFRMGFAEGIVAKHPARTSLKRNIQKSTRIGKGQVQLWAGYGLAAHPVSYTRYLPPDPQRVRNRRDAQFDLVSIYLAEILLKYVQSATVLYLYLKRLLKRVSGDTT | failed
MPEFTNNPVAECDTVFSEKDGKKIVDFIIYPAKNGDQWVGTAVEAKSMGFGGELKVLVGFDAEGKIYNYSLLSHAETPGLGSKAADWFKEGNKGSIKGMNPGEQPLTVSKDGGQVDAITASTITSRAFLNAVNAAYGAYKGDGGANGTTGASQKAVQKSETAIVDSVVIKLEHHHHHH | not failed
MPEIEIAAGSGDNNDALFGKYELGKLLGCGAFAKVFHARDRRTGQSVAVKILNKKKLLTNPALANNIKREISIMRRLSHPNIVKLHEVMATKSKIFFAMEFVKGGELFNKISKHGRLSEDLSRRYFQQLISAVGYCHARGVYHRDLKPENLLIDENGNLKVSDFGLSALTDQIRPDGLLHTLCGTPAYVAPEILSKKGYEGAKVDVWSCGIVLFVLVAGYLPFNDPNVMNMYKKIYKGEYRFPRWMSPDLKRFVSRLLDINPETRITIDEILKDPWFVRGGFKQIKFHDDEIEDQKVESSLEAVKSLNAFDLISYSSGLDLSGLFAGCSNSSGESERFLSEKSPEMLAEEVEGFAREENLRMKKKKEEEYGFEMEGQNGKFGIGICISRLNDLLVVVEARRRGGDGDCYKEMWNGKLRVQLIRVCDQTSSTNAAI | failed
MPEMADVMQTQAGDAGAFRHFDLSRVPTPCFVVDEVAIERNLKILRDISDRSGAHVLSALKAFSMFTLAPLVRQYLGGTCASGIYEARLGREEYGGEVATFCAGYKEQDIDEILSLSNHIIFNSPAQKDRFLSRAQAAGVQVGLRINPEHSEGEIAKYDPCAPCSRLGTPVSLLTPETLKGVDGLHMHTLCEQGFEPLLRTWAAVEPKLAPYLPGLKWLNFGGGHHITRADYDRDALIDFLKSLRARHGLDVYLEPGEAVALDAGILVGEILDLPSNGMDLAITDISATCHMPDVIEAPYRPALMDEADSGHTYRLGGPSCLAGDVIGDYTWDQPLTIGQRFAFLDQAHYSMVKTNTFNGVPLPTIALWNSKTDALRIVRQFDYSDFKDRLS | not failed
MPEVSFIICTRNRVAVLEACLKSVQAACRAHAGFAAELVVVDNGSSDRTAERLASIAAMSDIPFTPVSEPRRGLAAARNAGLRRARGRVLVFVDDDCAVHCDYLRDLERHYASGEQGLIRGGRVELGDPRDLPFTIKRSRVCERLTPDIHPGGFVLGCNMTMHRDVAARIGDFDERFGAGGPLRSAEDTDYLVRAVLLGIPVEYVPDMTIFHHHGRRDRKAIEKLHRDYSLGNGGLCLKHIRHAPWLLRHFYWAARGALRELAGGPAFDRDLDLSHRPIVGMNVLGAARYALLLLARRPQAEPARQDQQANAEAPLLEHHHHHH | failed
MPEWAAFVGLTGFLLTALLGLARLSQGAVRSDGGVSSTVDGVSMADRDPTIPRFETQRAAAQRQQMRDTLAPSDVSTGALLANVAFTQGLFGVLLVAGAFYFEIPASAFGVTSDALSTGLPAVAIGIGAGIGFWVGNEGAAALADGFGVTFDESLRELLAPDSPGGWVILLGGVLPVIAIVEELLFRAAAIGVPVAGLNAPAWAMAIVASVAFALGHGAQGRVGIVVTGTLGLALAGLFIATNSLLAVVVAHYLVNALELLVHEGLGVDRLWA | failed
